{"source": "paper PMC4249841", "molecular_target": "Hsp70-mCherry (human, cytoplasmic, heat-inducible hsp70 (hsp72) with a C-terminal mCherry tag) (human) (UniProt P0DMV8)", "sequence (P0DMV8 whole entry)": "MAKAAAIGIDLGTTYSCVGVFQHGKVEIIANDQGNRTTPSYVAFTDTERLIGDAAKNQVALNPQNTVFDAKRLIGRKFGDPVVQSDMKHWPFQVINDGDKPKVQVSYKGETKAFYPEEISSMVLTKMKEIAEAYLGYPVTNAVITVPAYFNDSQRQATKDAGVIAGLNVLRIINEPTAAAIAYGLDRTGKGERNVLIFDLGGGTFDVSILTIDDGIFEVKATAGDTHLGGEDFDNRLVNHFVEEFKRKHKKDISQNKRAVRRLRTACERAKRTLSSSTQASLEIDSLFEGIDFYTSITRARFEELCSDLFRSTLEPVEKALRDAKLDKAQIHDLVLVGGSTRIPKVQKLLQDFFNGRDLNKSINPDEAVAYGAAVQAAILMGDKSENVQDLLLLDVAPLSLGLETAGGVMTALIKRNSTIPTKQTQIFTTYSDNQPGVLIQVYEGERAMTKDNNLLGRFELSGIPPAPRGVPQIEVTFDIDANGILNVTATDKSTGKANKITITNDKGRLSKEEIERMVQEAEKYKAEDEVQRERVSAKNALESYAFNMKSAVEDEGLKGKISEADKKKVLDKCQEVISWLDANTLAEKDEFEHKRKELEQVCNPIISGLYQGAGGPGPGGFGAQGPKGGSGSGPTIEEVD", "assay": "FRET or BRET; live U2OS cells co-expressing the GFP-tagged PGK (donor) and the mCherry-tagged partner (acceptor); donor/acceptor (D/A) fluorescence ratio per cell under steady illumination, temperature titration 20°C-45°C, fitted by a two-state model", "data": [{"substance": "ltPGK-GFP (low melting temperature mutant of phosphoglycerate kinase, Y122W/W308F/W333F, with an N-terminal GFP tag) (enzyme)", "values": [{"measurement": "temperature midpoint of binding", "value": 39, "unit": "°C"}, {"measurement": "temperature of binding onset", "value": 35, "unit": "°C"}]}]}
